tested on: Saccharomyces cerevisiae; test: protein stability index of tFT-peptide fusion in wild type (PSI (0-1 scale)); higher = more stable (slower turnover); conditions: genetic background: wild type
Procedure: (§1)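 MPS profiling in S. cerevisiae of two library types built from selected 12-aa C-degron peptides (IN1, IN2, LN1, LN3, VN2, R1-R5, W1-W3, Atg1 and Rpa12 C-termini): saturation mutagenesis libraries and C-terminal +1 capping libraries (13 aa). Each peptide is fused to the C-terminus of a sfGFP-mCherry timer, after a GGGS linker. Cells are FACS-sorted into 8 mCherry/sfGFP bins and sequenced. PSI runs from 0 (unstable) to 1 (stable), measured once in wild type and in the das1Δ or doa10Δ background.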
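Wherever protein stability index of tFT-peptide fusion in deletion strain of DAS1 is given: PSI is a weighted mean of each variant's read distribution over the sorted stability bins, computed only for variants having over 10 reads in total.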
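Wherever protein stability index of tFT-peptide fusion in deletion strain of DOA10 is given: PSI per variant is the weighted mean of its sequencing read distribution over the sorted stability bins, counting only variants with over 10 reads summed across bins.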
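Wherever protein stability index of tFT-peptide fusion in wild type is given: PSI derived as read-weighted mean over the 8 sorting bins, only variants exceeding 10 total reads kept, mCherry placed adjacent to the peptide and sfGFP distal.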

| Sequence | protein stability index |
| --- | --- |
| AITCPMCPLLLR | 0.297 |
| AITLCMCPLLLR | 0.487 |
| AITLDMCPLLLR | 0.346 |
| AITLMMCPLLLR | 0.302 |
| AITLPMCLLLLR | 0.116 |
| AITLPMCPLLLRA | 0.171 |
| AITLPMCPLLLRC | 0.0981 |
| AITLPMCPLLLRS | 0.261 |
| AITLPMCPLLLRT | 0.169 |
| AITLPMCPPLLR | 0.546 |
| AITLPMCRLLLR | 0.27 |
| AITLPMCSLLLR | 0.212 |
| AITLPMCTLLLR | 0.116 |
| AITLPMFPLLLR | 0.16 |
| AITLPMGPLLLR | 0.186 |
| AITLPMKPLLLR | 0.297 |
| AITLPVCPLLLR | 0.229 |
| AITLPWCPLLLR | 0.153 |
| AITLVMCPLLLR | 0.547 |
| AITMPMCPLLLR | 0.285 |
| AITTPMCPLLLR | 0.462 |
| AITWPMCPLLLR | 0.226 |
| AMTLPMCPLLLR | 0.223 |

| Sequence | protein stability index |
| --- | --- |
| APTLPMCPLLLR | 0.29 |
| ASTLPMCPLLLR | 0.408 |
| AVTLPMCPLLLR | 0.261 |
| CLDSLPILLFFR | 0.214 |
| CLNSLPILLFFR | 0.109 |
| CLVELPILLFFR | 0.0526 |
| CLVSLDILLFFR | 0.265 |
| CLVSLPFLLFFR | 0.0627 |
| CLVSLPIALFFR | 0.0824 |
| CLVSLPILDFFR | 0.638 |
| CLVSLPILLFFF | 0.304 |
| CLVSLPILLFFRA | 0.0659 |
| CLVSLPILLFFRF | 0.0553 |
| CLVSLPILLFFRL | 0.0549 |
| CLVSLPILLFFT | 0.248 |
| CLVSLPILLFPR | 0.628 |
| CLVSLPILLGFR | 0.391 |
| CLVSLPILNFFR | 0.637 |
| CLVSLWILLFFR | 0.149 |
| CLVSLYILLFFR | 0.174 |
| CLYSLPILLFFR | 0.0509 |
| DLVSLPILLFFR | 0.109 |
| DVTRLDAIYFRI | 0.481 |

| Sequence | protein stability index |
| --- | --- |
| GFYMCSVGCWFR | 0.204 |
| GLHMCSVGCWFR | 0.214 |
| GLRMCSVGCWFR | 0.248 |
| GLVSLPILLFFR | 0.0632 |
| PSLAASQWRVVG | 0.184 |
| PSLEASFWRVVG | 0.121 |
| PSLKASFWRVVG | 0.147 |
| PSLMASFWRVVG | 0.131 |
| PSLWASFWRVVG | 0.103 |
| PWLAASFWRVVG | 0.0915 |
| QRWRVGLWRGAS | 0.345 |
| RKHKKGQKQKIN | 0.121 |
| RLAQPLPVQFLN | 0.0466 |
| RLFQPLPVQFLN | 0.034 |
| RLIGPLPVQFLN | 0.0842 |
| RLIQCLPVQFLN | 0.0457 |
| RLIQELPVQFLN | 0.061 |
| RLIQLLPVQFLN | 0.0564 |
| RLIQPEPVQFLN | 0.215 |
| RLIQPLNVQFLN | 0.0919 |
| RLIQPLPGQFLN | 0.282 |
| RLIQPLPVMFLN | 0.0639 |
| RLIQPLPVQELN | 0.525 |

| Sequence | protein stability index |
| --- | --- |
| RLIQPLPVQFIN | 0.0372 |
| RLIQPLPVQFLNF | 0.462 |
| RLIQPLPVQFPN | 0.622 |
| RLIQPLPVQMLN | 0.0702 |
| RLIQPLPVQTLN | 0.163 |
| RLIQPLPVQWLN | 0.0664 |
| RLIQPLPVYFLN | 0.0711 |
| RLMQPLPVQFLN | 0.1 |
| RLRQPLPVQFLN | 0.0588 |
| RLTQPLPVQFLN | 0.0562 |
| RSIQPLPVQFLN | 0.0915 |
| RSLAASFWRVVG | 0.117 |
| TKILRQKMNHQN | 0.148 |
| TVVYLSCVACIN | 0.0176 |
| VDKRNHLIKLLN | 0.105 |
| VKGAVGGWRLVG | 0.149 |
| VQGAVGGWRLVG | 0.14 |
| VRAAVGGWRLVG | 0.14 |
| VREAVGGWRLVG | 0.143 |
| VRGAIGGWRLVG | 0.157 |
| VRGAVGCWRLVG | 0.162 |
| VRGAVGGDRLVG | 0.609 |
| VRGAVGGNRLVG | 0.681 |

| Sequence | protein stability index |
| --- | --- |
| VRGAVGGPRLVG | 0.661 |
| VRGAVGGWHLVG | 0.286 |
| VRGAVGGWRDVG | 0.606 |
| VRGAVGGWRKVG | 0.133 |
| VRGAVGGWRLKG | 0.607 |
| VRGAVGGWRLVF | 0.564 |
| VRGAVGGWRLVGK | 0.651 |
| VRGAVGGWRLVGP | 0.664 |
| VRGAVGGWRLVGV | 0.649 |
| VRGAVGGWRLVV | 0.16 |
| VRGAVGGWRMVG | 0.155 |
| VRGAVGGWRTVG | 0.157 |
| VRGAVGPWRLVG | 0.138 |
| VRGAVGRWRLVG | 0.159 |
| VRGAVGTWRLVG | 0.171 |
| VRGAVLGWRLVG | 0.146 |
| VRGAVWGWRLVG | 0.108 |
| VRGMVGGWRLVG | 0.161 |
| VRGTVGGWRLVG | 0.151 |
| VRVAVGGWRLVG | 0.111 |
| VWGAVGGWRLVG | 0.134 |
| WKHKKGQKQKIN | 0.135 |
| WSMRWTFRYWVN | 0.0469 |

tested on: Saccharomyces cerevisiae; test: protein stability index of tFT-peptide fusion in deletion strain of DAS1 (PSI (0-1 scale)); higher = more stable (slower turnover); conditions: not given
Procedure: as §1

| Sequence | protein stability index |
| --- | --- |
| PSLAASQWRVVG | 0.668 |
| PSLEASFWRVVG | 0.673 |
| PSLKASFWRVVG | 0.678 |
| PSLMASFWRVVG | 0.707 |
| PSLWASFWRVVG | 0.697 |
| PWLAASFWRVVG | 0.717 |
| QRWRVGLWRGAS | 0.683 |
| RKHKKGQKQKIN | 0.574 |
| RLAQPLPVQFLN | 0.566 |
| RLFQPLPVQFLN | 0.658 |
| RLIGPLPVQFLN | 0.598 |
| RLIQCLPVQFLN | 0.571 |
| RLIQELPVQFLN | 0.616 |
| RLIQLLPVQFLN | 0.635 |
| RLIQPEPVQFLN | 0.61 |
| RLIQPLNVQFLN | 0.575 |
| RLIQPLPGQFLN | 0.612 |
| RLIQPLPVMFLN | 0.564 |
| RLIQPLPVQELN | 0.703 |
| RLIQPLPVQFIN | 0.583 |
| RLIQPLPVQFLNF | 0.659 |
| RLIQPLPVQFPN | 0.605 |

| Sequence | protein stability index |
| --- | --- |
| RLIQPLPVQMLN | 0.606 |
| RLIQPLPVQTLN | 0.68 |
| RLIQPLPVQWLN | 0.641 |
| RLIQPLPVYFLN | 0.729 |
| RLMQPLPVQFLN | 0.572 |
| RLRQPLPVQFLN | 0.593 |
| RLTQPLPVQFLN | 0.857 |
| RSIQPLPVQFLN | 0.643 |
| RSLAASFWRVVG | 0.689 |
| TKILRQKMNHQN | 0.67 |
| TVVYLSCVACIN | 0.0307 |
| VDKRNHLIKLLN | 0.609 |
| VKGAVGGWRLVG | 0.691 |
| VQGAVGGWRLVG | 0.708 |
| VRAAVGGWRLVG | 0.681 |
| VREAVGGWRLVG | 0.676 |
| VRGAIGGWRLVG | 0.684 |
| VRGAVGCWRLVG | 0.69 |
| VRGAVGGDRLVG | 0.68 |
| VRGAVGGNRLVG | 0.67 |
| VRGAVGGPRLVG | 0.669 |
| VRGAVGGWHLVG | 0.671 |

| Sequence | protein stability index |
| --- | --- |
| VRGAVGGWRDVG | 0.629 |
| VRGAVGGWRKVG | 0.68 |
| VRGAVGGWRLKG | 0.673 |
| VRGAVGGWRLVF | 0.677 |
| VRGAVGGWRLVGK | 0.667 |
| VRGAVGGWRLVGP | 0.671 |
| VRGAVGGWRLVGV | 0.659 |
| VRGAVGGWRLVV | 0.675 |
| VRGAVGGWRMVG | 0.685 |
| VRGAVGGWRTVG | 0.674 |
| VRGAVGPWRLVG | 0.687 |
| VRGAVGRWRLVG | 0.669 |
| VRGAVGTWRLVG | 0.694 |
| VRGAVLGWRLVG | 0.677 |
| VRGAVWGWRLVG | 0.649 |
| VRGMVGGWRLVG | 0.683 |
| VRGTVGGWRLVG | 0.705 |
| VRVAVGGWRLVG | 0.652 |
| VWGAVGGWRLVG | 0.692 |
| WKHKKGQKQKIN | 0.546 |
| WSMRWTFRYWVN | 0.48 |

tested on: Saccharomyces cerevisiae; test: protein stability index of tFT-peptide fusion in deletion strain of DOA10 (PSI (0-1 scale)); higher = more stable (slower turnover); conditions: not given
Procedure: as §1

| Sequence | protein stability index |
| --- | --- |
| AITCPMCPLLLR | 0.643 |
| AITLCMCPLLLR | 0.665 |
| AITLDMCPLLLR | 0.68 |
| AITLMMCPLLLR | 0.612 |
| AITLPMCLLLLR | 0.629 |
| AITLPMCPLLLRA | 0.3 |
| AITLPMCPLLLRC | 0.381 |
| AITLPMCPLLLRS | 0.554 |
| AITLPMCPLLLRT | 0.441 |
| AITLPMCPPLLR | 0.663 |
| AITLPMCRLLLR | 0.651 |
| AITLPMCSLLLR | 0.656 |
| AITLPMCTLLLR | 0.675 |
| AITLPMFPLLLR | 0.638 |
| AITLPMGPLLLR | 0.688 |
| AITLPMKPLLLR | 0.659 |
| AITLPVCPLLLR | 0.652 |
| AITLPWCPLLLR | 0.662 |
| AITLVMCPLLLR | 0.679 |
| AITMPMCPLLLR | 0.677 |
| AITTPMCPLLLR | 0.668 |
| AITWPMCPLLLR | 0.7 |
| AMTLPMCPLLLR | 0.646 |
| APTLPMCPLLLR | 0.664 |
| ASTLPMCPLLLR | 0.668 |

| Sequence | protein stability index |
| --- | --- |
| AVTLPMCPLLLR | 0.648 |
| CLDSLPILLFFR | 0.664 |
| CLNSLPILLFFR | 0.627 |
| CLVELPILLFFR | 0.625 |
| CLVSLDILLFFR | 0.355 |
| CLVSLPFLLFFR | 0.618 |
| CLVSLPIALFFR | 0.631 |
| CLVSLPILDFFR | 0.678 |
| CLVSLPILLFFF | 0.42 |
| CLVSLPILLFFRA | 0.475 |
| CLVSLPILLFFRF | 0.483 |
| CLVSLPILLFFRL | 0.512 |
| CLVSLPILLFFT | 0.528 |
| CLVSLPILLFPR | 0.654 |
| CLVSLPILLGFR | 0.653 |
| CLVSLPILNFFR | 0.66 |
| CLVSLWILLFFR | 0.365 |
| CLVSLYILLFFR | 0.347 |
| CLYSLPILLFFR | 0.586 |
| DLVSLPILLFFR | 0.637 |
| DVTRLDAIYFRI | 0.739 |
| GFYMCSVGCWFR | 0.632 |
| GLHMCSVGCWFR | 0.682 |
| GLRMCSVGCWFR | 0.676 |
| GLVSLPILLFFR | 0.608 |
